# Assay results taken from article doi:10.1101/2025.03.21.644603, “Oligomerization enables the selective targeting of intrinsically disordered regions by small molecules” (bioRxiv, 2025).
# B1: activation domain of the estrogen receptor alpha (ERɑ) (domain or fragment, UniProt P03372 1-184, looked up)
# chain: MTMTLHTKASGMALLHQIQGNELEPLNRPQLKIPLERPLGEVYLDSSKPAVYNYPEGAAYEFNAAAAANAQVYGQTGLPYGPGSEAAAFGSNGLGGFPPLNSVSPSPLMLLHPPPQLSPFLQPHGQQVPYYLENEPSGYTVREAGPPAFYRPNSDNRRQGGRERLASTNDKGSMAMESAKETRY
# notes: also called ERɑ AD; ERɑ (1-184 aa); source: E. coli Rosetta (DE3), pDEST17, purified (inclusion bodies in urea, HisTrap, tag cleavage, SEC); not shown: His-tag, N-terminal, cleaved
# B2: activation domain of the glucocorticoid receptor (GR) (domain or fragment, UniProt P04150 1-420, looked up)
# chain: MDSKESLTPGREENPSSVLAQERGDVMDFYKTLRGGATVKVSASSPSLAVASQSDSKQRRLLVDFPKGSVSNAQQPDLSKAVSLSMGLYMGETETKVMGNDLGFPQQGQISLSSGETDLKLLEESIANLNRSTSVPENPKSSASTAVSAAPTEKEFPKTHSDVSSEQQHLKGQTGTNGGNVKLYTTDQSTFDILQDLEFSSGSPGKETNESPWRSDLLIDENCLLSPLAGEDDSFLLEGNSNEDCKPLILPDTKPKIKDNGDLVLSSPSNVTLPQVKTEKEDFIELCTPGVIKQEKLGTVYCQASFPGANIIGNKMSAISVHGVSTSGGQMYHYDMNTASLSQQQDQKPIFNVIPPIPVGSENWNRCQGSGDDNLTSLGTLNFPGRTVFSNGYSSPSMRPDVSSPPSSSSTATTGPPPKL
# notes: also called GR AD; GR (1-420 aa); source: E. coli Rosetta (DE3), pDEST17, purified (inclusion bodies in urea, HisTrap, tag cleavage, SEC); not shown: His-tag, N-terminal, cleaved
# B3: activation domain of the progesterone receptor (PR) (domain or fragment, UniProt P06401 1-566, looked up)
# chain: MTELKAKGPRAPHVAGGPPSPEVGSPLLCRPAAGPFPGSQTSDTLPEVSAIPISLDGLLFPRPCQGQDPSDEKTQDQQSLSDVEGAYSRAEATRGAGGSSSSPPEKDSGLLDSVLDTLLAPSGPGQSQPSPPACEVTSSWCLFGPELPEDPPAAPATQRVLSPLMSRSGCKVGDSSGTAAAHKVLPRGLSPARQLLLPASESPHWSGAPVKPSPQAAAVEVEEEDGSESEESAGPLLKGKPRALGGAAAGGGAAAVPPGAAAGGVALVPKEDSRFSAPRVALVEQDAPMAPGRSPLATTVMDFIHVPILPLNHALLAARTRQLLEDESYDGGAGAASAFAPPRSSPCASSTPVAVGDFPDCAYPPDAEPKDDAYPLYSDFQPPALKIKEEEEGAEASARSPRSYLVAGANPAAFPDFPLGPPPPLPPRATPSRPGEAAVTAAPASASVSSASSSGSTLECILYKAEGAPPQQGPFAPPPCKAPGASGCLLPRDGLPSTSASAAAAGAAPALYPALGLNGLPQLGYQAAVLKEGLPQVYPPYLNYLRPDSEASQSPQYSFESLPQKI
# notes: also called PR AD; PR (1-566 aa); source: E. coli Rosetta (DE3), pDEST17, purified (inclusion bodies in urea, HisTrap, tag cleavage, SEC); not shown: His-tag, N-terminal, cleaved
# B4: activation domain of the mineralocorticoid receptor (MR) (domain or fragment, UniProt P08235 1-602, looked up)
# chain: METKGYHSLPEGLDMERRWGQVSQAVERSSLGPTERTDENNYMEIVNVSCVSGAIPNNSTQGSSKEKQELLPCLQQDNNRPGILTSDIKTELESKELSATVAESMGLYMDSVRDADYSYEQQNQQGSMSPAKIYQNVEQLVKFYKGNGHRPSTLSCVNTPLRSFMSDSGSSVNGGVMRAVVKSPIMCHEKSPSVCSPLNMTSSVCSPAGINSVSSTTASFGSFPVHSPITQGTPLTCSPNVENRGSRSHSPAHASNVGSPLSSPLSSMKSSISSPPSHCSVKSPVSSPNNVTLRSSVSSPANINNSRCSVSSPSNTNNRSTLSSPAASTVGSICSPVNNAFSYTASGTSAGSSTLRDVVPSPDTQEKGAQEVPFPKTEEVESAISNGVTGQLNIVQYIKPEPDGAFSSSCLGGNSKINSDSSFSVPIKQESTKHSCSGTSFKGNPTVNPFPFMDGSYFSFMDDKDYYSLSGILGPPVPGFDGNCEGSGFPVGIKQEPDDGSYYPEASIPSSAIVGVNSGGQSFHYRIGAQGTISLSRSARDQSFQHLSSFPPVNTLVESWKSHGDLSSRRSDGYPVLEYIPENVSSSTLRSVSTGSSRPSKI
# notes: also called MR AD; MR (1-602 aa); source: E. coli Rosetta (DE3), pDEST17, purified (inclusion bodies in urea, HisTrap, tag cleavage, SEC); not shown: His-tag, N-terminal, cleaved
# Molecular target: the molecule itself
# Assay: dynamic light scattering; one purified protein in solution; NR ADs at 2 mg/mL (AR AD also 35 µM), Tau-5* at 200 to 500 µM; 5 °C; 20 mM sodium phosphate pH 7.4, 1 mM TCEP, 0.5% DMSO-d6; percent of monomer against higher-order species; also with increasing EPI-001
row,Protein,binding result
1,B1,binds
2,B2,binds
3,B3,binds
4,B4,binds
